Test results published in patent publication US7563582 (Sanofi, dated 2009).

Target: T1, GST-zyxin(1-142) (UniProt Q15942 1-142)
T1 construct: Expressed in E. coli; also called zyxin derivative; GST fusion protein with the N-terminus of zyxin; not shown: glutathione S-transferase
T1 sequence (looked up): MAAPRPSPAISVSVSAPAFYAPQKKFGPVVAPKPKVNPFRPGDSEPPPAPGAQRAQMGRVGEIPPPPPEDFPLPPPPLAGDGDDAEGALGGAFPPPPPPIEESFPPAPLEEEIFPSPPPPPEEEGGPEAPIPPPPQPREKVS
Assay: solid-phase assay (DELFIA) in 384-well plates, 20 µl per well, GST-zyxin(1-142) coated, VASP as ligand
Protocol: In the solid-phase assay, a binding partner (VASP or zyxin) was immobilized on the surface of a microtiter plate (MTP) (=coating). The unsaturated binding sites on the surface of the plastic were blocked, and the surface was then incubated with the respective other binding partners. After the incubation, excess unattached protein was removed in a washing step. Using suitable antibodies, it was now possible to detect and quantify the specifically bound protein. Here, it was possible to improve the signal-noise (S/N) ratio considerably by using lanthanide chelates as fluorescent labels for the antibodies and the measurement of the time-resolved fluorescence.
The volume per well used depended on the selected MTP format (50 µl or 100 µl for 96-well plates, 20 µl for 384-well plates).

B1: recombinant human VASP protein with complete amino acid sequence obtained from insect cells (other, UniProt P50552 2-380, looked up)
chain: SETVICSSRATVMLYDDGNKRWLPAGTGPQAFSRVQIYHNPTANSFRVVGRKMQPDQQVVINCAIVRGVKYNQATPNFHQWRDARQVWGLNFGSKEDAAQFAAGMASALEALEGGGPPPPPALPTWSVPNGPSPEEVEQQKRQQPGPSEHIERRVSNAGGPPAPPAGGPPPPPGPPPPPGPPPPPGLPPSGVPAAAHGAGGGPPPAPPLPAAQGPGGGGAGAPGLAAAIAGAKLRKVSKQEEASGGPTAPKAESGRSGGGGLMEEMNAMLARRRKATQVGEKTPKDESANQEEPEARVPAQSESVRRPWEKNSTTLPRMKSSSSVTTSETQPCTPSSSDYSDLQRVKQELLEEVKKELQKVKEEIIEAFVQELRKRGSP
notes: mature; also called baculo VASP; vasodilator-stimulated phosphoprotein
S/N ratio: ~100
